Test results published in patent US20200386770A1 (YUROGEN BIOSYSTEMS, published 2020).
Blank lines part the entries; values can stand above or below the binder they belong to.

Tests used:
human PD-L2 = target: T1, human PD-L2 (human, UniProt Q9BQ51 20-220, limits assumed); test: direct ELISA, human PD-L2 coated
T1 construct: Coated on plates in the direct ELISA; construct not described; also called programmed death ligand-2
T1 sequence (looked up): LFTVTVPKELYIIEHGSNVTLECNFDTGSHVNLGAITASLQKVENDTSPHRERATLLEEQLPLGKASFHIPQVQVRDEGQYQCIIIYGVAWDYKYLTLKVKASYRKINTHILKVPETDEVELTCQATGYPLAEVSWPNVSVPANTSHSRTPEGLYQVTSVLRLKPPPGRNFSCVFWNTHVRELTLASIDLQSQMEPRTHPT
Description: The procedures of the direct ELISA are described in the method below. […] The negative control was conducted using the same procedures as the anti-human PD-L1 antibodies, except that a blank buffer is used instead of the anti-human PD-L1 antibodies. The blank buffer is the buffer for diluting the anti-human PD-L1 antibodies. […] Thereby, 2C5, 3B8, 8C6, 10H6, 11G7, and 12H2 can eliminate the cross-reactivity of human PD-L2.
(§1) 3. Direct ELISA with rabbit monoclonal antibodies against human PD-L1 or PD-L2. Human PD-L1 and PD-L2 were coated on high binding ELISA plates at 4° C. overnight in 1×PBS, pH7.4. Coated plates were washed with Wash Buffer (1×PBS supplemented with 0.5% (V/V) Tween-20), and blocked with Blocking Buffer (1×PBS supplemented with 5% (W/V) skim milk). After blocking, plates were incubated with rabbit anti-PD-L1 monoclonal antibodies for 1 hour at room temperature, followed by washing and incubation with goat anti-rabbit IgG antibody conjugated with HRP. After a final wash, plated were developed using colorimetric reaction catalyzed by HRP to see if a monoclonal antibody can or cannot bind to PD-L1 and PD-L2.

human PD-L1 [1] = target: T2, human PD-L1 (human, UniProt Q9NZQ7 19-238, limits assumed); test: direct ELISA, 10 ng/ml human PD-L1
T2 construct: also called programmed death ligand-1; CD274
T2 sequence (Q9NZQ7 19-238 limits assumed): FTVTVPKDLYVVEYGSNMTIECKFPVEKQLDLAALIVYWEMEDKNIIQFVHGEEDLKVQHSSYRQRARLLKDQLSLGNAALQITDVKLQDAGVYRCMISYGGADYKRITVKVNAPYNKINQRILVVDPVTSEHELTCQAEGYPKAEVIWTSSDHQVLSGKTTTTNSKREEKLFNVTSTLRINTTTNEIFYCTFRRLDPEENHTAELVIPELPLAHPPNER
Description: as §1

human PD-L1 [2] = target: T2, human PD-L1; test: sandwich ELISA (8C6 capture, 2C5 detection) compared with direct ELISA
Description: As compared to the direct ELISA with 8C6 shown in FIG. […] The sandwich ELISA enhances the sensitivity of human PD-L1 to 2C5, as compared to the direct ELISA.
as §1
5. Sandwich ELISA with rabbit monoclonal antibodies against human PD-L1. Capture antibodies were coated on high binding ELISA plates at 4° C. overnight in bicarbonate buffer. Coated plates were washed with Wash Buffer (1×PBS supplemented with 0.5% (V/V) Tween-20), and blocked with Blocking Buffer (1×PBS supplemented with 5% (W/V) skim milk). […]

B1: rabbit anti-human PD-L1 mAb 8C6 (antibody, V domains shown)
VH: QSVEESGGRLVTPGTPLTLTCTASGFDISRHHMCWVRQAPGEGLEYIGFINPPGSAYYANWAKGRFTISRTSTTVALEMTSLTTEDTATYFCARWRFDDYGDLWGQGTLVTVSS
VL: AYDMTQTPASVEVAVGGTVTIKCQASESIASYLAWYQQKPGQPPKLLIYKASTLASGVSSRFRGSGSGTEFTLTISGVECADAATYYCQQGYSATNIDNAFGGGTEVVVKG
notes: Recombinant rabbit IgG; Full heavy chain assembled from the Fab heavy chain entry followed by the Fc entry; Biotinylated when used as detection antibody in the sandwich ELISA
binding result (human PD-L2): no binding (tested: concentrations up to 1000 ng/ml)

OD450 at 10 ng/ml (human PD-L1 [1]): ~0.1 OD450
B2: rabbit anti-human PD-L1 mAb 11G7 (antibody, V domains shown)
VH: QSVEESGGRLVTPGTPLTLTCTVSGIDLSSYDMTWVRQAPGKGLEYIGYISYFDKTYYATWAKGRFTISKTSTTVDLKMTSLTTEDTATYFCVRDRPDGITANLWGQGTLVTVSS
VL: AQLPTQTASPVSAAVGGTVTINCQSSHNVYSDNRLSWYQQKPGQPPKLLIYWASILASGVPSRFKGSGSGTQFTLTITDLECDDAATYYCAGGYSGNIYTFGGGTEVVVKG
notes: Recombinant rabbit IgG; Full heavy chain assembled from the Fab heavy chain entry followed by the Fc entry
binding result (human PD-L2): no binding (tested: concentrations up to 1000 ng/ml)

B3: rabbit anti-human PD-L1 mAb 3B8 (antibody, V domains shown)
VH: QSLEESGGDLVKPGASRTLTCTASGFSFSNNAYMCWVRQAPGKGLELIACIYSRYGNTHYASWAKGRFTISKTSSTTVTLQMTSLTAADTATYFCARGASGSSDYSFYFNLWGPGTLVTVSS
VL: AYDMTQTPASVEVAVGGTVTIKCQASQSISSWLAWYQQKPGQPPKLLIYDAYDLASGVPSRFKGSGSGTQFTLTISGVECTDAATYYCQQGYSSENIDNSFGGGTDVVVKG
notes: as for B1
binding result (human PD-L2): no binding (tested: concentrations up to 1000 ng/ml)

fold sensitivity, sandwich ELISA against direct ELISA (human PD-L1 [2]): ≥ 2 fold
B4: rabbit anti-human PD-L1 mAb 2C5 (antibody, V domains shown)
VH: QSVEESGGRLVTPGTPLTLTCTVSGFSLNNDNVGWVRQAPGKGLEWVGLIDILGSSYYASWAKGRFTISKTSNTVDLKITSPTIEDTATYFCAREGDGSFDPWGPGTLVTVSS
VL: AQVLTQTPSPVSAAVGGTVTINCQASQNVYNKKNLAWYQQKLGQPPKLLIYKASTLASGVPSRFSGSGSGTQFTLTISDLECDDAATYYCQGDYIGSRAFGGGTEVVVKG
notes: as for B1
binding result (human PD-L2): no binding (tested: concentrations up to 1000 ng/ml)

B5: rabbit anti-human PD-L1 mAb 12H2 (antibody, V domains shown)
VH: QEQLVESGGGLVQPEGSLTLTCTASGFSFSSSYYMCWVRQAPGKGLEWIACIWTSNGGRTYYANWAKGRFTISETSSTTVTLQMTSLTAADTATYFCARDDDTGSGYYNLWGPGTLVTVSS
VL: QIVMTQTASPVSAAVGGTVTINCQASESISSWLAWYQQKPGQPPKLLIYKASTLASGVPSRFKGSGSGTEFTLTISDLECADAATYYCQHGYYFGSVANTFGGGTEVVVKG
notes: as for B2
binding result (human PD-L2): no binding (tested: concentrations up to 1000 ng/ml)

B6: rabbit anti-human PD-L1 mAb 10H6 (antibody, V domains shown)
VH: QEQLVESGGGLVQPEGSLTLTCTASGFSFSSIYYLCWVRQAPGKGLEWIACIYGGNSDNTWYASWAKGRFTISKTSSTTVTLQMTSLTAADTATYFCARGYDIYGYAINLWGPGTLVTVSS
VL: DVVMTQTPASVEAAVGGTVTIKCQASQSIGGYLAWYQQKPGQPPKLLIYRASTLESGVASRFKGSGSGTEFTLTISDLECADAATYYCQCTYDSSNSRIYPNVFGGGTEVVVKG
notes: as for B2
binding result (human PD-L2): no binding (tested: concentrations up to 1000 ng/ml)
